Laboratory results as given in patent publication US7947279B2, “Peptide having hydrolase activity” (The Trustees of Columbia University in the City of New York, priority 2005, dated 2011).
“Also recorded” adds a separate entry of the source.

Legend:
[1] = system: ubiquitin-AMC; test: Hydrolysis of ubiquitin-AMC by TAT fusion proteins; assay type: biochemical; details: 20 nM TAT fusion proteins
Method: Measurement of Hydrolase Activity: The hydrolase assay was performed as previously described (Nishikawa et al., 2003) with slight modifications. Briefly, hippocampal tissue was treated with tissue protein extraction reagent (T-PER; Pierce) containing freshly added EDTA-free protease inhibitors. Homogenate was centrifuged at 10,000 rpm for 5 min. Protein concentration was measured in the supernatant using the BCA protein assay reagent. In some experiments hydrolysis was initiated by adding 10 μl of 20 nM Uch-L1 or Uch-L3 (Boston Biochem). The hydrolase assay was performed using fluorogenic ubiquitin-7-amino-4-methylcoumarin (ubiquitin-AMC) (Boston Biochem) as a substrate. The substrate was diluted in assay buffer (50 mM Tris-HCL, 0.5 mM EDTA, 5 mM dithiothreitol and 0.1 mg/ml ovalbumin, pH 7.6). […] The reaction was monitored using a fluorescence spectrophotometer (CytoFluor Series 4000, ABI Inc) at 25° C. The free AMC fluorophore was excited at 380 nm and measured at 460 nm. Hydrolase activity was expressed as relative fluorescence intensity/min (Dang et al., 1998). In some experiments, hydrolysis was also measured on the soluble and insoluble fractions (FIG. 28D). In a group of experiments hydrolysis was measured by mixing ubiquitin-AMC with 20 nM TAT fusion proteins (FIG. 27C). […]

[2] = system: CA1-LTP in hippocampal slices; test: CA1-LTP in hippocampal slices (theta-burst); assay type: cell-based, mouse; details: for Aβ-induced impairment of CA1-LTP (words): fusion protein 20 nM 1 hr, then plus Aβ 200 nM 20 min; for LTP in slices not treated with Aβ (words): fusion protein 20 nM, 1 hr, WT slices, 3 theta-burst trains
[3] = system: mice (WT and APP/PS1); test: Contextual and cued fear conditioning; assay type: in vivo, mouse; details: 0.02-0.04 g/kg i.p.; 1, 7, 14 and 21 days after training
Method: Behavioral Studies: Fear conditioning was performed in a conditioning chamber as previously described (Bourtchuladze et al., 1994; Gong et al., 2004). For contextual and cued fear conditioning mice were placed in the conditioning chamber for 2 min before the onset of a discrete tone (CS) (a 30 sec sound at 2800 Hz and 85 dB). In the last 2 sec of the CS, mice were given a foot shock (US) of 0.50 mA for 2 sec through the bars of the floor. After the CS/US pairing, the mice were left in the conditioning chamber for another 30 sec and then placed back in their home cages. Freezing behavior, defined as the absence of all movement except for that necessitated by breathing, was scored using Freezeview software. To evaluate contextual fear learning, freezing was measured for 5 min in the chamber in which the mice were trained 24 hrs after training. To evaluate cued fear conditioning, following contextual testing, the mice were placed in a novel context (triangular cage with smooth flat floor and with vanilla odorant) for 2 min (pre-CS test), after which they were exposed to the CS for 3 min (CS test), and freezing was measured. To evaluate the contextual fear over time, mice were placed for 5 min in the chamber in which the mice were trained 7- 14- 21-days after training. Sensory perception of the shock was determined through threshold assessment. Each animal was placed individually into the conditioning chamber. […] Animal behavior was evaluated for the first visible response to the shock (flinch), the first extreme motor response (run/jump), and the first vocalized distress (scream). Threshold to flinching, jumping, and screaming was quantified for each animal by averaging of the shock intensity at which each animal manifested a behavioral response of that type to the foot shock. Visual, motor, and motivation skills were also tested with visible platform training by measuring the time and the speed to reach a visible platform placed within a pool filled with water (Gong et al., 2004). Both time to reach the platform and swimming speed were recorded and analyzed with a video tracking system (HVS-2020, HVS Image, UK). No difference was observed among different groups of mice in the experiments in which fear conditioning was tested both in the presence of LDN and TAT fusion proteins. To decide the time of administration of LDN, experiments were performed in which the inhibitor was injected intra-peritoneally at different intervals (4 hrs before, 1 hr before, 1 hr after and 4 hrs after) from the electric shock. During the training phase, no difference was found in the freezing of LDN- or vehicle-injected mice.

[4] = system: SY5Y neuroblastoma cells transfected with a degron CL1-GFP expression vector; test: Proteasome reporter assay (GFP^u); assay type: cell-based, human; details: substance alone
Method: Proteasome reporter assays. In this cell line, human neuroblastoma SH-SY5Y cells were permanently transfected with reporter construct consisting of green fluorescent protein (GFP) conjugated at its C-terminus to a short degron sequence (CL-1) (Gilon et al., 1998). […] The SY5Y-GFP^u cells were grown in 1×DMEM (Invitrogen) supplemented with 15% fetal bovine serum (JRH), 1× penicillin/streptomycin (Gibco). After indicated treatments, GFP^u concentrations were assayed by densitometric analysis of immunoblots of total protein extracts (10 ug/lane) using monoclonal GFP antibodies (Santa Cruz Biotechnology) and visualized with HRP-conjugated secondary antibodies and ECL (Pierce). Loading equalization was normalized by probing blots with anti-ERK antibodies (Santa Cruz Biotechnology).

[5] = system: phospho-CREB at Ser-133; test: Phospho-CREB (Ser-133) Western blot in hippocampal cultures; assay type: cell-based, rat
Method: Western Blotting: Protein levels were assessed using standard procedures. Protein extraction was performed using buffer with and without detergent. For the extraction of protein using detergent, hippocampal tissues and cultured hippocampal neurons (5 DIV) were homogenized in RIPA buffer (50 mM Tris-HCl pH 7.4, 1% Triton X-100, 1% sodium deoxycholate, 0.1% SDS, 150 mM sodium chloride, 10 mM sodium fluoride, 30 mM sodium pyrophosphate, 50 mM sodium orthovanadate) containing 1× complete protease inhibitor (Roche) and 1 mM phenylmethylsulfonyl fluoride (PMSF). For extraction of proteins without detergent, hippocampal extracts were homogenized with disposable dounce homogenizers in buffer A, containing 10 mM HEPES pH 7.3, 300 mM sucrose, protease 1× complete protease inhibitor (Roche) and PMSF. After centrifugation at 10,000×g supernatant proteins were resolved on a 8% or 4-20% gradient Tris-Glycine gel, transferred onto PVDF or nitrocellulose membrane and blocked in 5% skim milk in PBS-Tween 0.1% (PBS-T). Membranes were probed with primary antibodies, and after washing with PBS-T incubated with an appropriate HRP-conjugated secondary antibody. The following antibodies were used: mouse monoclonal anti-ubiquitin (Chemicon), rabbit polyclonal anti-pCREB (Upstate Biotech.), rabbit polyclonal anti-PKA-RIIα (Santa Cruz Biotech. Inc), mouse monoclonal anti-Uch-L1 (Novocastra), monoclonal mouse anti-HA (Santa Cruz Biotech. Inc), and anti-PKA IIα. Detection was performed using HRP-conjugated secondary antibodies (Pierce, Rockford, Ill.). To control loading and transfer, protein immunoreactivities were normalized against total extracellular signal-regulated protein kinases (ERK1/2) levels with a rabbit analyzed using a rabbit polyclonal anti-ERK1/2 antibody (Cell Signaling Technology, Inc). NIH IMAGE was used to analyze the scanned blots and quantify the intensity of the protein signals.
Preparation of Cell Cultures. Hippocampal cell cultures were prepared as previously described (Vitolo et al., 2002). In cell culture experiments fetuses at embryonic day 18 from timed pregnant Sprague-Dawley rats (Taconic Farms) were used. Fetuses were sacrificed and the hippocampi removed. Neurons were then dissociated, plated on 6 well-plates coated with poly-L-lysine and maintained in a defined serum-free medium containing minimum essential medium supplemented with N-2, glucose, albumin, pyruvic acid, antibiotics and antimycotics. […] 5 DIV cells were used for the experiments.

B1: TAT-HA-Uch-L1(C90S): mutant TAT-HA-Uch-L1 construct, C90S (hydrolase site), made by site-directed mutagenesis (protein, UniProt P09936 1-220, looked up, variant C90S)
Ubiquitin carboxyl-terminal …: MQLKPMEINPEMLNKVLSRLGVAGQWRFVDVLGLEEESLGSVPAPACALLLLFPLTAQHENFRKKQIEELKGQEVSPKVYFMKQTIGNSSGTIGLIHAVANNQDKLGFEDGSVLKQFLSETEKMSPEDRAKCFEKNEAIQAAHDAVAQEGQCRVDDKVNFHFILFNNVDGHLYELDGRMPFPVNHGASSEDTLLKDAAKVCREFTEREQGEVRFSAVALC
modifications: fused to HIV TAT transduction peptide and HA tag
notes: mutant TAT-HA-Uch-L1 construct, C90S (hydrolase site), made by site-directed mutagenesis
Uch (hydrolase) activity of TAT constructs (words) [1]: little or no activity
Uch (hydrolase) activity of TAT constructs (words) ([1]; listed as TAT-HA-Uch-L1 (C90S)): inactive
Aβ-induced impairment of CA1-LTP (words) [2]: failed to protect against LTP suppression; also recorded: failed to reverse
Aβ-induced impairment of CA1-LTP (words) ([2]; listed as TAT-HA-Uch-L1(C90S) peptide): did not protect against LTP suppression
LTP in slices not treated with Aβ (words) [2]: severely impaired potentiation
LTP in slices not treated with Aβ (words) ([2]; listed as Mutant (C90S) TAT-Uch-L1 fusion protein): reduces LTP
LTP in slices not treated with Aβ (words) ([2]; listed as mutant (C90S) TAT-Uch-L1): dramatically reduced LTP
amounts of potentiation ([2]; fusion protein alone, no Aβ): 152.38±10.90%
decrease in potentiation compared to vehicle or TAT-HA-iUch-L1 ([2]; fusion protein alone, no Aβ): ~60%
baseline transmission in slices without tetanic stimulation ([2]; non-tetanized slices): Neither TAT-HA-Uch-L1(C90S) nor TAT-HA-Uch-L1(S18Y) affected baseline; also recorded: did not affect basal transmission
contextual learning in WT mice [3]: impaired both contextual learning and its decay; also recorded: worsened contextual conditioning performance
GFP^u levels [4]: increase in GFP^u
glutamate-induced increase in CREB phosphorylation ([5]; cultures not treated with Aβ): blocked the glutamate-induced increase in CREB phosphorylation
effect of Aβ on glutamate-induced CREB phosphorylation (words) ([5]; fusion protein 100 nM, 3 μM Aβ 24 hrs, 50 μM glutamate 15 min): did not allow the enhancement of phospho-CREB
